# Source: the RNAGym collection of RNA variant scans (doi:10.1073/pnas.2313332121)
# Variants at the floor of the assay were thinned out.
# B1: TPR 5TU (parent)
# chain: GGAUCUUCUCGAUCUAACAAAAAAGACAAAUCUGCCACAAAGCUUGAGAGCAUCUUCGGAUGCAGAGGCGGCAGCCUUCGGUGGCGCGAUAGCGCCAACGUUCUCAACUAUGACACGCAAAACGCGUGCUCCGUUGAAUGGAGUUUAUCAUG
# Variants of: B1
# Assay: polymerase ribozyme fitness, log enrichment relative to wild type (log ratio); higher = more active; in vitro selection for triplet polymerase activity
# Method in brief: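 One round of in vitro selection, in triplicate, was applied to PCR-built, transcribed mutant libraries of each subunit of a heterodimeric triplet polymerase ribozyme. The steps were annealing with a biotinylated primer, partner subunit and triplets, incubation frozen at −7 °C, gel excision of extended constructs, streptavidin-bead capture and RT-PCR. Fitness is the logarithm, base 2, of genotype enrichment over wild-type enrichment from inverse-variance-weighted replicate averages of Illumina-sequenced inputs and outputs, keeping genotypes with ≥10 input reads and ≥1 read per output.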
row,Variant,polymerase ribozyme fitness (log ratio)
1,GGAUCUUCUCGAUCUAACAAAAAAGACAAAUCUGCCACAAAGCUUGAGAGCAUCUUUGGAUGCAGAGGCGGCAGCCUUCGGUGCCGCGAUAGCGACAACGUUCUCAACUAUGACAGGCAAAACGCGUGCUCCGUUUACUGGAGUUUAUCAUG [C57U G84C C95A C116G G136U A138C],-4.17
2,GGAUCUUCUCGAUCUAACAAAAAAGACAAAUCUGCCACAAAGCUUGAGAGCAUCUUUUGAUGCAGAGGCGGCAGCCUUCGGUGGCGCGAUAGCGCCAACGUUCUCAACUAUGACACGCAAAACGCGUGCUCCGUUGAAUGGAGUUUAUCAUG [C57U G58U],0.297
3,GGAUCUUCUCGAUCUAACAAAAAAGACAAAUCUGCCACAAAGCUUGAGAGCAUCUUUGGAUGCAGAGGCGGCAGCCUUCGGUGGCACGAUAGCGCCAACGUUCUCAACUAUGACACGCAAAACGCGUGCUCCGUUGAAUGGAGUUUAUCAUG [C57U G86A],-1.16
4,GGAUCUUCUCGAUCUAACAAAAAAGACAAAUCUGCCACAAAGCUUGAGAGCAUCUUUGGAUGCAGAGGCGGCAGCCUUCGGUGGCUCGAUAGCGCCAACGUUCUCAACUAUGACACGCAAAACGCGUGCUCCGUUGAAUGGAGUUUAUCAUG [C57U G86U],-1.78
5,GGAUCUUCUCGAUCUAACAAAAAAGACAAAUCUGCCACAAAGCUUGAGAGCAUCUUUGAAUGCAGACGCGGCAGCCUUCGGUGGCGCGAUAGCCCCAACGUUCUCAACUAUGACACGCAAAACGCGUGCUCCGUUGAAUGGAGUUUAUCAUG [C57U G59A G67C G94C],≤ -4.2
6,GGAUCUUCUCGAUCUAACAAAAAAGACAAAUCUGCCACAAAGCUUGAGAGCAUCUUUGGAUGCAGAGGCGGCAGCCUUCGGUGACGCGAUAGCGCCAUCGUUCUCAACUAUGACACGCAAAACGCGUGUUCCGUUGAAUGGAGUUUUUCAUG [C57U G84A A98U C129U A147U],-1.13
7,GGAUCUUCUCGAUCUAACAAAAAAGACAAAUCUGCCACAAAGCUUGAGAGCAUCUUUCGAUGCAGAGGCGGCAGCCUUCGGUGGCGCGAUAGCGCCAACGUUCUCAACUAUGACACGCAAAACGCGUGCUCCGUUGAAUGGCGUUUAUCAUG [C57U G58C A142C],0.768
8,GGAUCUUCUCGAUCUAACAAAAAAGACAAAUCUGCCACAAAGCUUGAGAGCAUCUUUGAAUGCAGAGGCGGCAGCCUUCGGUGGUGCGAUAGCGGCAACGUUCUCAACUAUGACACGCAAAACGCGUGCUCCGUUGAAUGGAGUUUAUCAUG [C57U G59A C85U C95G],-2.02
9,GGAUCUUCUCGAUCUAACAAAAAAGACAAAUCUGCCACAAAGCUUGAGAGCAUCUUUGGAUGCAGAGGCAGCAGCCUUCGGUCGCGCGAUAGCGCCAACGUUCUCAACUAUGACACGCAAAACGCGUGCUCCGUUGAAGGGAGUUUAUCAUG [C57U G70A G83C U139G],≤ -4.2
10,GGAUCUUCUCGAUCUAACAAAAAAGACAAAUCUGCCACAAAGCUUGAGAGCAUCUUUGGAUGCAGAGGCUGCAGCCUUAGGUGGCGCGAUAGGGCCAACGUUCUGAACUAUGACACGCAAAACGCGUGCUCCGUUGAAUGGACUUUAUCAUG [C57U G70U C79A C93G C105G G143C],≤ -4.2
11,GGAUCUUCUCGAUCUAACAAAAAAGACAAAUCUGCCACAAAGCUUGAGAGCAUCUUUGGAUGCAGAGACGGUAGCCUUCGGUGGCGCGAUAACGCCAACGUUCUCAACUAUGACACGCAAAACGCGUGCUCCGUUGAAUGGAGUUUAUCAUG [C57U G68A C72U G92A],≤ -4.2
12,GGAUCUUCUCGAUCUAACAAAAAAGACAAAUCUGCCACAAAGCUUGAGAGCAUCUUUGGAUGCAGAGGCGGCAGCCUUCGGUCGCGCGAUAGCGCCAACGUUCUCAACUAUGACACGCAAAACGCGUGCUCCGUUGAAUGGAGUUUAUCAUG [C57U G83C],-0.999
13,GGAUCUUCUCGAUCUAACAAAAAAGACAAAUCUGCCACAAAGCUUGAGAGCAUCUUUGAAUGCAGAGGCGGCAGCCUUCGGUGGCACGAUAGCGCCAACGUUCUCAACUAUGACACGCAAAACGCGUGCUCCGAUGAAUGGAGUUUAACAUG [C57U G59A G86A U134A U148A],≤ -4.2
14,GGAUCUUCUCGAUCUAACAAAAAAGACAAAUCUGCCACAAAGCUUGAGAGCAUCUUUGGAUGCAGAGGCGGCAGCCUUCGGUGACGCGAUAGCGCCAACGUUCUCAACUAUGACACGCAAAACGCGUGCUCCGUUGAAUGGAGUUUAUCAUG [C57U G84A],-0.782
15,GGAUCUUCUCGAUCUAACAAAAAAGACAAAUCUGCCACAAAGCUUGAGAGCAUCUUUGCAUGCAGAGGCGGCAGCCUUCGGUGGCGCGAUAGCGGCAACGUUCUCAAUUAUGACACGCAAAACGCGUGCUCCGUUGAAUGGAGUUUAACAUG [C57U G59C C95G C108U U148A],≤ -4.2
16,GGAUCUUCUCGAUCUAACAAAAAAGACAAAUCUGCCACAAAGCUUGAGAGCAUCUUUGGAUGCAGAGGCGGCAGCCUUCGGUGGCGCUAUAGCGCCAACAUUCUCACCUAUGACACGCAAAACGCGUGCUCCGUUGAAUGGAGUUUAUCAUG [C57U G88U G100A A107C],≤ -4.2
17,GGAUCUUCUCGAUCUAACAAAAAAGACAAAUCUGCCACAAAGCUUGAGAGCAUCUUUGGAUGCAGAGGCGGCAGCCUUCGGUAGCGCAGUAGCGCCAACGUUCUCAACUAUGACACGCAAAACGCGUGCUCCGGUGAAUGGAGUUUAUCAUG [C57U G83A G88A A89G U134G],≤ -4.2
18,GGAUCUUCUCGAUCUAACAAAAAAGACAAAUCUGCCACAAAGCUUGAGAGCAUCUUUGGAUGCAGAGGCGGCAGCCUUCGGUUGCGCGAUAGCGCCAACGUUCUCAACUAUGACACGCAAAACGCGUGCUCCGUUGGAUGGAGUUUAUCAUG [C57U G83U A137G],-1.92
19,GGAUCUUCUCGAUCUAACAAAAAAGACAAAUCUGCCACAAAGCUUGAGAGCAUCUUUGAAUGCAGAGGCGGCAGCCUUCGGUCUAGCGAUAGCGCCAACGGUCUCAACUAUGACACGCAAAACGCAUGCUCCGUUGAAUGGCGUUUAUCAUG [C57U G59A G83C G84U C85A U101G G126A A142C],≤ -4.2
